Assays:
[1] = target: phosphorylated 14-3-3ζ-18E6 chimera (14-3-3ζ∆C-GGGG-18E6 PBM) (human | human papillomavirus type 18) (UniProt P63104); experiment: crystal structure
14-3-3β = 14-3-3β (UniProt P31946); experiment: competitive FP, FITC-HSPB6 phosphopeptide tracer; conditions: reference: unphosphorylated 18E6 peptide; sites T156
14-3-3γ = 14-3-3γ (UniProt P61981); experiment: competitive FP, FITC-HSPB6 phosphopeptide tracer; conditions: reference: unphosphorylated 18E6 peptide; sites T156
14-3-3ε = 14-3-3ε (UniProt P62258); experiment: competitive FP, FITC-HSPB6 phosphopeptide tracer; conditions: reference: unphosphorylated 18E6 peptide; sites T156
14-3-3ζ = 14-3-3ζ (UniProt P63104); experiment: competitive FP, FITC-HSPB6 phosphopeptide tracer; conditions: reference: unphosphorylated 18E6 peptide; sites T156
14-3-3η = 14-3-3η (UniProt Q04917); experiment: competitive FP, FITC-HSPB6 phosphopeptide tracer; conditions: reference: unphosphorylated 18E6 peptide; sites T156
14-3-3σ = 14-3-3σ (UniProt P31947); experiment: competitive FP, FITC-HSPB6 phosphopeptide tracer; conditions: reference: unphosphorylated 18E6 peptide; sites T156
14-3-3τ = 14-3-3τ (UniProt P27348); experiment: competitive FP, FITC-HSPB6 phosphopeptide tracer; conditions: reference: unphosphorylated 18E6 peptide; sites T156

phosphorylated 14-3-3ζ-18E6 chimera (14-3-3ζ∆C-GGGG-18E6 PBM) (from UniProt P63104 1-229)
stoichiometry N [1]: 2

HPV18 E6 (18E6) (from UniProt P06463) p18E6 peptide
binding against the reference (14-3-3β): gained
binding against the reference (14-3-3γ): gained
binding against the reference (14-3-3ε): gained
binding against the reference (14-3-3ζ): gained
binding against the reference (14-3-3η): gained
binding against the reference (14-3-3σ): gained
binding against the reference (14-3-3τ): gained
